Data taken from paper PMC9482650, “Quantitative fragmentomics allow affinity mapping of interactomes” (Nature Communications, 2022).

Columns and labels:
Experiment in all cases: holdup assay
Set-up in all cases: key: below the threshold = too weak to quantify, mostly under pKd 3.1 to 4
Settings in all cases: plain residues with an end cap or a label only (N-terminal biotin on a linker: ado-ado)
PDZD2_2, O15018 = target: T1, PDZD2_2, O15018
T1 sequence (O15018 329-429, limits assumed, looked up): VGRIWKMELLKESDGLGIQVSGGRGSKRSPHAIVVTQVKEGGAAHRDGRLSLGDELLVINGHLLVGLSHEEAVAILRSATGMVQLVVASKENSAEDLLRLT

SNTB1, Q13884 = target: T2, SNTB1, Q13884
T2 sequence (Q13884 107-205, limits assumed, looked up): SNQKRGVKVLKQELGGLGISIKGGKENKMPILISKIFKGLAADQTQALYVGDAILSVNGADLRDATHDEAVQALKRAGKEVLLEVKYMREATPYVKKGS

NHERF3_4, Q5T2W1 = target: T3, NHERF3_4, Q5T2W1
T3 sequence (Q5T2W1 373-468, limits assumed, looked up): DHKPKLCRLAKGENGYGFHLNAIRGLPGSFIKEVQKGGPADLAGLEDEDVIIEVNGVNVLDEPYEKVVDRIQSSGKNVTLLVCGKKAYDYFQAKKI

Inadl_8, Q8NI35 = target: Inadl_8, Q8NI35
Chain of Inadl_8, Q8NI35 (Q8NI35 1425-1530): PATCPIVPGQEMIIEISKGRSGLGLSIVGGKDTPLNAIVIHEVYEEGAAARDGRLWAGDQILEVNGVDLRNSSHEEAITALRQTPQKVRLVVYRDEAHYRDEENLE

RHPN1, Q8TCX5 = target: T4, RHPN1, Q8TCX5
T4 sequence (Q8TCX5 508-602, limits assumed, looked up): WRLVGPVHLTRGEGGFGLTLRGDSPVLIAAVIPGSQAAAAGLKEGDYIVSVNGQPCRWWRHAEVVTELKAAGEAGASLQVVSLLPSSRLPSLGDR

FRMPD2_3, Q68DX3 = target: FRMPD2_3, Q68DX3
Chain of FRMPD2_3, Q68DX3 (Q68DX3 1073-1166): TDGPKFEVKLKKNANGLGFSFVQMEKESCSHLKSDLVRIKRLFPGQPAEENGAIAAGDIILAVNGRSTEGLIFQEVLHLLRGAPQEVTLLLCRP

NHERF3_3, Q5T2W1 = target: T5, NHERF3_3, Q5T2W1
T5 sequence (Q5T2W1 238-333, limits assumed, looked up): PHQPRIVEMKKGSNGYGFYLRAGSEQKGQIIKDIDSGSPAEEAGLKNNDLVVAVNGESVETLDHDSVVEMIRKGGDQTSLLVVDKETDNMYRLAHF

DLG3_1, Q92796 = target: T6, DLG3_1, Q92796
T6 sequence (Q92796 125-227, limits assumed, looked up): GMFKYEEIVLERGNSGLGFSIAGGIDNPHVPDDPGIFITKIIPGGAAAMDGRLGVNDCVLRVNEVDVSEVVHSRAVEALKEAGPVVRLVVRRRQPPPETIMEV

GORASP2, Q9H8Y8 = target: GORASP2, Q9H8Y8
SCRIB_2, Q14160 = target: SCRIB_2, Q14160
Chain of SCRIB_2, Q14160 (Q14160 857-960): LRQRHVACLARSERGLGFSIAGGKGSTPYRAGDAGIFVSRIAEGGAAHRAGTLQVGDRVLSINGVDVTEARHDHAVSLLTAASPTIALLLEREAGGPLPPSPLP

DLG4_1, P78352 = target: DLG4_1, P78352
Chain of DLG4_1, P78352 (P78352 62-152): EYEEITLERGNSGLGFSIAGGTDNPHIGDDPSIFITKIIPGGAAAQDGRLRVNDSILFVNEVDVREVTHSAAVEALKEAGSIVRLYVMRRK

FRMPD2_1, Q68DX3 = target: FRMPD2_1, Q68DX3
Chain of FRMPD2_1, Q68DX3 (Q68DX3 770-861): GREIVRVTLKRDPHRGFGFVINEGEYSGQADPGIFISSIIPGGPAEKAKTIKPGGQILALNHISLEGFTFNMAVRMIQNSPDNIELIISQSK

MPDZ_5, O75970 = target: T7, MPDZ_5, O75970
T7 sequence (O75970 695-796, limits assumed, looked up): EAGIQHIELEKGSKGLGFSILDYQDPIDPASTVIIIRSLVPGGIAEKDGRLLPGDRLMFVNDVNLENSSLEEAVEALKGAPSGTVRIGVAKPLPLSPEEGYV

HTRA3, P83110 = target: T8, HTRA3, P83110
T8 sequence (P83110 354-453, limits assumed, looked up): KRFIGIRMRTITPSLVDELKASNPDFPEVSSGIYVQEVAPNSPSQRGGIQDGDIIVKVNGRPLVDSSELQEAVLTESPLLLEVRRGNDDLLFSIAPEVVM

MAGI1_1, Q96QZ7 = target: MAGI1_1, Q96QZ7
Chain of MAGI1_1, Q96QZ7 (Q96QZ7 1-106): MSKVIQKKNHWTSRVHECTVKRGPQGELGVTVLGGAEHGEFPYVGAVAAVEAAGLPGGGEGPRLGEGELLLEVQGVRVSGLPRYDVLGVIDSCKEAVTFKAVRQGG

TJP1_2, Q07157 = target: TJP1_2, Q07157
Chain of TJP1_2, Q07157 (Q07157 181-274): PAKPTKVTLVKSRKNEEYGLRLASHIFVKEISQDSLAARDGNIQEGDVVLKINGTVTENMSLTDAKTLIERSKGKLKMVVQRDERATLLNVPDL

FRMPD2_2, Q68DX3 = target: FRMPD2_2, Q68DX3
Chain of FRMPD2_2, Q68DX3 (Q68DX3 944-1038): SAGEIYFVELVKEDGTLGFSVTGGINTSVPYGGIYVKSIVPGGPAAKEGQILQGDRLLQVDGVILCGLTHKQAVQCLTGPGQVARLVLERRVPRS

GORASP1, Q9BQQ3 = target: GORASP1, Q9BQQ3
Chain of GORASP1, Q9BQQ3 (Q9BQQ3 1-208): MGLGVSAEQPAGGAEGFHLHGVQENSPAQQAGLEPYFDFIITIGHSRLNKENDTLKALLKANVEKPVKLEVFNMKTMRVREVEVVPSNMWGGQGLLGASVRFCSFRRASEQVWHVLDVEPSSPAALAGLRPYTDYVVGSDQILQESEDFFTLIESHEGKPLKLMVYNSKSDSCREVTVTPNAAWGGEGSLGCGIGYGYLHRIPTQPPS

CASK, O14936 = target: CASK, O14936
Chain of CASK, O14936 (O14936 487-570): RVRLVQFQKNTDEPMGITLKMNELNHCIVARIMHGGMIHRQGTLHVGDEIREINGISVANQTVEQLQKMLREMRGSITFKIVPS

LAP2, Q96RT1 = target: LAP2, Q96RT1
Chain of LAP2, Q96RT1 (Q96RT1 other isoform, or with tags, fused parts or gaps): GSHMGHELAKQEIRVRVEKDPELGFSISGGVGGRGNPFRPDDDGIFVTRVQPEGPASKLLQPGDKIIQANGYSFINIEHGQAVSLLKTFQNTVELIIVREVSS

MAGI2_6, Q86UL8 = target: MAGI2_6, Q86UL8
Chain of MAGI2_6, Q86UL8 (Q86UL8 1141-1229): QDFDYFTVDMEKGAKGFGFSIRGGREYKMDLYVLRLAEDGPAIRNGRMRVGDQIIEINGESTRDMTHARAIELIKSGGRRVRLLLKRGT

MAGI3_2, Q5TCQ9 = target: MAGI3_2, Q5TCQ9
Chain of MAGI3_2, Q5TCQ9 (Q5TCQ9 398-503): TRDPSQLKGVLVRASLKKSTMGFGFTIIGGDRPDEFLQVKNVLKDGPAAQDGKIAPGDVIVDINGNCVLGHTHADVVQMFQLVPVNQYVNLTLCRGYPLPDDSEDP

DLG3_2, Q92796 = target: T9, DLG3_2, Q92796
T9 sequence (Q92796 221-321, limits assumed, looked up): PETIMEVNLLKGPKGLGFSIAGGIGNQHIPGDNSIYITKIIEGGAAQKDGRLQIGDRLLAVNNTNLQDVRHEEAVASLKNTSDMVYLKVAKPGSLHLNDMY

Inadl_5, Q8NI35 = target: Inadl_5, Q8NI35
Chain of Inadl_5, Q8NI35 (Q8NI35 673-780): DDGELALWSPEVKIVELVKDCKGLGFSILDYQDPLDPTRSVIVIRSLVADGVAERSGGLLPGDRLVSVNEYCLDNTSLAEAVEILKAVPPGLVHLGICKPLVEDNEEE

GRIP1_7, Q9Y3R0 = target: T10, GRIP1_7, Q9Y3R0
T10 sequence (Q9Y3R0 999-1096, limits assumed, looked up): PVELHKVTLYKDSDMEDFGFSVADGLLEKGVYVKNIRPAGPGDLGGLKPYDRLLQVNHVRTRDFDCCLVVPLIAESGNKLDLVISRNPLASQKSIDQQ

LIN7A, O14910 = target: T11, LIN7A, O14910
T11 sequence (O14910 103-200, limits assumed, looked up): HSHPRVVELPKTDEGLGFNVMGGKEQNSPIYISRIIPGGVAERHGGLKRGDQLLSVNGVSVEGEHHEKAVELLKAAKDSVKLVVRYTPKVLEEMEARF

GRID2IP_1, A4D2P6 = target: GRID2IP_1, A4D2P6
Chain of GRID2IP_1, A4D2P6 (A4D2P6 1-87): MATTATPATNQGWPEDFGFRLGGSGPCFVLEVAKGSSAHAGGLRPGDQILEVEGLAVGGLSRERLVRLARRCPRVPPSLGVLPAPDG

B1: SDK2, Q58EX2 (peptide)
chain: APIAGFSSFV
pKd (PDZD2_2, O15018): 5.54
pKd (SNTB1, Q13884): 3.97
pKd (NHERF3_4, Q5T2W1): below the threshold
pKd (Inadl_8, Q8NI35): 4.34
pKd (RHPN1, Q8TCX5): 4.76
pKd (FRMPD2_3, Q68DX3): below the threshold
pKd (NHERF3_3, Q5T2W1): below the threshold
pKd (DLG3_1, Q92796): 3.88
pKd (GORASP2, Q9H8Y8): 4.03
pKd (SCRIB_2, Q14160): 3.62
pKd (DLG4_1, P78352): 4.24
pKd (FRMPD2_1, Q68DX3): below the threshold
pKd (MPDZ_5, O75970): below the threshold
pKd (HTRA3, P83110): 4.49
pKd (MAGI1_1, Q96QZ7): below the threshold
pKd (TJP1_2, Q07157): below the threshold
pKd (FRMPD2_2, Q68DX3): 4.36
pKd (GORASP1, Q9BQQ3): 3.75
pKd (CASK, O14936): below the threshold
pKd (LAP2, Q96RT1): 4.17
pKd (MAGI2_6, Q86UL8): 4.13
pKd (MAGI3_2, Q5TCQ9): 4.27
pKd (DLG3_2, Q92796): 4.07
pKd (Inadl_5, Q8NI35): 3.82
pKd (GRIP1_7, Q9Y3R0): below the threshold
pKd (LIN7A, O14910): below the threshold
pKd (GRID2IP_1, A4D2P6): below the threshold

B2: CLDN18, P56856 (peptide)
chain: QSYPSKHDYV
pKd (PDZD2_2, O15018): 4.86
pKd (SNTB1, Q13884): below the threshold
pKd (NHERF3_4, Q5T2W1): 3.48
pKd (Inadl_8, Q8NI35): 4.22
pKd (RHPN1, Q8TCX5): below the threshold
pKd (FRMPD2_3, Q68DX3): below the threshold
pKd (NHERF3_3, Q5T2W1): below the threshold
pKd (DLG3_1, Q92796): below the threshold
pKd (GORASP2, Q9H8Y8): 4.13
pKd (SCRIB_2, Q14160): below the threshold
pKd (DLG4_1, P78352): 3.67
pKd (FRMPD2_1, Q68DX3): below the threshold
pKd (MPDZ_5, O75970): below the threshold
pKd (HTRA3, P83110): 4.19
pKd (MAGI1_1, Q96QZ7): below the threshold
pKd (TJP1_2, Q07157): 3.61
pKd (FRMPD2_2, Q68DX3): below the threshold
pKd (GORASP1, Q9BQQ3): 3.74
pKd (CASK, O14936): below the threshold
pKd (LAP2, Q96RT1): below the threshold
pKd (MAGI2_6, Q86UL8): 3.82
pKd (MAGI3_2, Q5TCQ9): below the threshold
pKd (DLG3_2, Q92796): below the threshold
pKd (Inadl_5, Q8NI35): 3.57
pKd (GRIP1_7, Q9Y3R0): below the threshold
pKd (LIN7A, O14910): below the threshold
pKd (GRID2IP_1, A4D2P6): below the threshold

B3: CCRL2, O00421 (peptide)
chain: REEPDHSTEV
pKd (PDZD2_2, O15018): 5.32
pKd (SNTB1, Q13884): 4.36
pKd (NHERF3_4, Q5T2W1): below the threshold
pKd (Inadl_8, Q8NI35): below the threshold
pKd (RHPN1, Q8TCX5): 3.83
pKd (FRMPD2_3, Q68DX3): below the threshold
pKd (NHERF3_3, Q5T2W1): below the threshold
pKd (DLG3_1, Q92796): 4.26
pKd (GORASP2, Q9H8Y8): 3.48
pKd (SCRIB_2, Q14160): 4.32
pKd (DLG4_1, P78352): 4.71
pKd (FRMPD2_1, Q68DX3): below the threshold
pKd (MPDZ_5, O75970): below the threshold
pKd (HTRA3, P83110): 3.48
pKd (MAGI1_1, Q96QZ7): below the threshold
pKd (TJP1_2, Q07157): below the threshold
pKd (FRMPD2_2, Q68DX3): 4.16
pKd (GORASP1, Q9BQQ3): below the threshold
pKd (CASK, O14936): below the threshold
pKd (LAP2, Q96RT1): 4.15
pKd (MAGI2_6, Q86UL8): 4.71
pKd (MAGI3_2, Q5TCQ9): below the threshold
pKd (DLG3_2, Q92796): 4.59
pKd (Inadl_5, Q8NI35): below the threshold
pKd (GRIP1_7, Q9Y3R0): 3.56
pKd (LIN7A, O14910): below the threshold
pKd (GRID2IP_1, A4D2P6): below the threshold

B4: KIRREL1, Q96J84 (peptide)
chain: RFQQRMQTHV
pKd (PDZD2_2, O15018): 4.4
pKd (SNTB1, Q13884): below the threshold
pKd (NHERF3_4, Q5T2W1): below the threshold
pKd (Inadl_8, Q8NI35): 3.72
pKd (RHPN1, Q8TCX5): 3.91
pKd (FRMPD2_3, Q68DX3): below the threshold
pKd (NHERF3_3, Q5T2W1): below the threshold
pKd (DLG3_1, Q92796): 3.57
pKd (GORASP2, Q9H8Y8): 4.12
pKd (SCRIB_2, Q14160): 4.1
pKd (DLG4_1, P78352): 4.32
pKd (FRMPD2_1, Q68DX3): below the threshold
pKd (MPDZ_5, O75970): below the threshold
pKd (HTRA3, P83110): below the threshold
pKd (MAGI1_1, Q96QZ7): below the threshold
pKd (TJP1_2, Q07157): below the threshold
pKd (FRMPD2_2, Q68DX3): below the threshold
pKd (GORASP1, Q9BQQ3): below the threshold
pKd (CASK, O14936): below the threshold
pKd (LAP2, Q96RT1): below the threshold
pKd (MAGI2_6, Q86UL8): below the threshold
pKd (MAGI3_2, Q5TCQ9): 5.37
pKd (DLG3_2, Q92796): 4.69
pKd (Inadl_5, Q8NI35): 3.6
pKd (GRIP1_7, Q9Y3R0): below the threshold
pKd (LIN7A, O14910): below the threshold
pKd (GRID2IP_1, A4D2P6): below the threshold
